According to the Immune Epitope Database (IEDB):

Key:
[1] = biological target: HLA-A*02:06; test: IEDB peptide-MHC binding, cellular MHC/competitive/fluorescence; ≥ and ≤ were set here for values at or beyond the usual limits of such assays
[2] = biological target: HLA-A*02:03; test: IEDB peptide-MHC binding, purified MHC/competitive/radioactivity; ≥ and ≤ were set here for values at or beyond the usual limits of such assays
[3] = biological target: HLA-A*02:01; test: as above
[4] = biological target: HLA-A*02:02; test: as above
[5] = biological target: HLA-A*68:02; test: as above
[6] = biological target: HLA-A*02:01; test: IEDB peptide-MHC binding, cellular MHC/competitive/fluorescence; ≥ and ≤ were set here for values at or beyond the usual limits of such assays; settings: source organism: Vaccinia virus WR
[7] = biological target: HLA-A*68:02; test: as above; settings: source organism: Vaccinia virus WR
[8] = biological target: HLA-A*02:06; test: IEDB peptide-MHC binding, purified MHC/competitive/radioactivity; ≥ and ≤ were set here for values at or beyond the usual limits of such assays; settings: source organism: Vaccinia virus WR
[9] = source organism: Vaccinia virus WR
[10] = source organism: Mammarenavirus whitewaterense
[11] = source organism: Hepacivirus hominis

| Sequence | IC50 [1, 9] | IC50 [2, 9] | IC50 [3, 9] | IC50 [4, 9] | IC50 [5, 9] | IC50 [6] | IC50 [7] | IC50 [8] | also measured |
| --- | --- | --- | --- | --- | --- | --- | --- | --- | --- |
| MAEFEDQLV | 5.51 µM | 0.641 µM | 2.15 µM | 0.165 µM | 0.674 µM |  |  |  |  |
| LLNETAKVI | 15.4 µM | 0.071 µM | 0.406 µM | 0.319 µM | 0.881 µM |  |  |  |  |
| NITPDDGLGL |  | 1.29 µM |  | 1.91 µM |  | 6.53 µM | 12.6 µM | 3.45 µM |  |
| LQWDDNIPEL |  | 0.712 µM |  | 0.18 µM |  | 9.52 µM | 42.7 µM | 0.034 µM |  |
| DQDTMLFASA |  | 0.663 µM |  | 0.891 µM |  | 7.38 µM | 5.66 µM | 1.72 µM |  |
| MLKLFTHDIM | 20.3 µM | 0.093 µM | 1.38 µM | 0.085 µM | 2 µM |  |  |  |  |
| SLCPTKKLV | 11.9 µM | 2.66 µM | 2.67 µM | 3.16 µM | 1.04 µM |  |  |  |  |
| IISTDQDTML |  | 1.81 µM |  | 0.451 µM |  | 8.57 µM | 32.4 µM | 0.666 µM |  |
| MIGNYFSGVL |  | 0.761 µM |  | 0.712 µM |  | 5.76 µM | 5.62 µM | 1.31 µM |  |
| NIDSIMSMM |  | 0.874 µM |  | 0.025 µM |  | 5.14 µM | 11.1 µM | 4.72 µM |  |
| LDFAKVASV |  |  |  |  |  |  |  |  | IC50 [1, 10]: 10.6 µM; IC50 [2, 10]: 0.453 µM; IC50 [3, 10]: 4.74 µM; IC50 [4, 10]: 0.061 µM; IC50 [5, 10]: 0.296 µM |
| DTGKKELAL | 14.2 µM | 0.156 µM | 3.39 µM | 0.116 µM | 3.41 µM |  |  |  |  |
| TLFYCDERDA | 19.5 µM | 2.15 µM | 0.238 µM | 0.271 µM | 4.92 µM |  |  |  |  |
| FIQWTGGNI | 5.91 µM | 0.055 µM | 0.525 µM | 0.683 µM | 0.442 µM |  |  |  |  |
| KIKQTGINNV |  | 0.0031 µM |  | 0.237 µM |  | 7.3 µM | 35.9 µM | 2.55 µM |  |
| KIDILQMREI |  | 0.414 µM |  | 1.28 µM |  | 6.51 µM | ≥ 70 µM | 0.875 µM |  |
| ELLEMKYAL | 6.02 µM | 0.863 µM | 0.281 µM | 0.952 µM | 1.52 µM |  |  |  |  |
| GTKGKLYIA |  | 0.056 µM |  | 1.72 µM |  | 23.3 µM | ≥ 70 µM | 2.53 µM |  |
| FTEEQQQSFM |  | 1.75 µM |  | 1.12 µM |  | 10.1 µM | 8.16 µM | 0.833 µM |  |
| GINNVQSLI |  | 0.378 µM |  | 0.474 µM |  | 11.7 µM | 30.8 µM | 1.73 µM |  |
| VLIVMLLFA |  |  |  |  |  |  |  |  | IC50 [1, 11]: 8.42 µM; IC50 [2, 11]: 0.435 µM; IC50 [3, 11]: 2.36 µM; IC50 [4, 11]: 1.62 µM; IC50 [5, 11]: 4.55 µM |
| QLVFNSISA |  | 1.56 µM |  | 4.8 µM |  | 9.42 µM | 8.22 µM | 3.78 µM |  |
| KVTVPTNDHI |  | 1.24 µM |  | 4.71 µM |  | 13.2 µM | 6.59 µM | 3.6 µM |  |
| DLFMSHVKSV | 19.8 µM | 0.042 µM | 2.49 µM | 3.38 µM | 1.94 µM |  |  |  |  |
| TIAVSVYGAI | 5.39 µM | 0.582 µM | 2.56 µM | 1.55 µM | 0.618 µM |  |  |  |  |
| YIEDELRRA |  | 0.259 µM |  | 1.76 µM |  | 5.41 µM | ≥ 70 µM | 1.23 µM |  |
| NIKISLNEI |  | 0.031 µM |  | 1.67 µM |  | 21 µM | 20 µM | 1.5 µM |  |
